# Measured values reported in article PMC3001952.
# Target: single chain trimer version of HLA-Cw6, normal length
# Experiment: cell-cell conjugate formation by flow cytometry; PKH26-labelled NKL cells (or KIR2DL1-expressing NKL cells) mixed with equal numbers of PKH67-labelled P815 transfectants, 30 min, fixed with 1% paraformaldehyde; percentage of NKL cells forming conjugates
substance,measurement,value
KIR2DL1-CFP on NKL cells (from UniProt P43626 22-348) (receptor),percent of NKL cells forming conjugates,> 50%
